Test results taken from the nanobody polyreactivity screen of Harvey et al. (2022).

assay: yeast display, Sf9 membrane polyspecificity reagent, FACS + sequencing; frameworks hold sequencing errors
How it was run: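 Genes from sorted yeast were amplified by colony PCR, read by MiSeq 2 × 250 sequencing and filtered on CDR length. These cells carried a synthetic nanobody library in Saccharomyces cerevisiae BJ5465 and were sorted by FACS into low and high (top ~1%) gates on anti-HA and streptavidin fluorescence. Polyreactivity is labelled according to the gate of origin.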

Row | Sequence | polyreactivity (PSR sort gate)
1 | QDQLVESGGGLVQAGGSLRLSCAPSGFILATNAMGWYRPAPGKERELVAAISYSCGSTNYADSVKGRFTISRDNAKNTVYLQMISLKPVDTAVYYCNDGGSVIWAWYGPVYSWGQGTQVTVSS | low polyreactivity
2 | QDQLVESGGGLVQAGGSLRLSCASSGFTFYVYAMGWYRQAPGKERELVAAISRSGSRTYYADSVKGRVTISRDNAQKTVYLQMNSLKPEDTAVYYCARVRPRGLYFVLHYDYWGQGTQVTVSS | high polyreactivity
3 | QDQLVESGGGLVQAGGSLRLSCASSGRIFRWYAMGWYRQATGKERELVAAISWSGDSTYYADSVKGRFSISRDNAKNNVYLEMNSLKPEDTAVYYCNYVLYKSDYWGQGTQVTVSS | high polyreactivity
4 | QDQLVESGGGLVQAGGSLRLSCSASGFTITHNAMGWYRQAPGKEREFVATISRSGGRTYYADSVKGRFTISRDNAKNTVFFQMNSLKPEDTPVYYCAARTSGYWYSYGSWGQGTQVTVSS | high polyreactivity
5 | QDQLVESGGGLVQAGGSLRLSFAASGFTFDHYAMGWSRQAPGKEREYVARITGTGDSTYYADSVKGRFTISRDNAKNTVYLQMNSLKPEDTAVYYCAKDFTGHYPNGFDYWGQGTQVTVSS | low polyreactivity
6 | QDQLVESGGGLVQAGGSLRLSFAASGRIIYYNAMGWYRQAPGKERELVAAISFSDGSTYYADSVKGRFTISRDNAKKTVYLQMNSLKPEDTAVYYCAADIGYYYDYWGQGTLVTVSS | low polyreactivity
7 | QDQLVESGGGLVQAGGSLRLSFAAYGSTFIVYAMGWYRHAPGKERDLVAAISLDGGSTYYADSVKGRFTISLDNAKNNVYLQMNSLKPEDTAVYYCNADYYANSITYDSWGQGTQVTVSS | low polyreactivity
8 | QDQLVESGGGLVQAGGSLRLSGAASGRIFGYYAMGWYRQPPGKETELVARISSGGGSTYYADSVKGRFTISRDNAKNTVYLQLNSLKPEDTAVDYCATVLYPYSPRYDYWGQGTLVTVSS | high polyreactivity
9 | QDQLVESGGGLVQAGGSLRLSGAASGRTFRRYAKGWDRQAPGKEREWVATISSGGSTYYADSVKGRFTISRDNAKNTVYLQMNSLKPEDTALYYCAVRYWRAYYRYDYWGQGTQVTVSS | high polyreactivity
10 | QDQLVESGGGLVQAGGSLRLTCAASGFIFDRNTMGLYRQATGNDTELVAAISRSGGSTYYSDSVNGRFTISRDNAKNTVYLQMNSMKPEDTAVYNCGALYYYRNRSYYYWGQGTHVTVSS | high polyreactivity
11 | QDQLVESGGGLVQAGGSLRLTCAASGGIFWSYAMGWYRQAPGKERDLVAAINWNAGSTYYADSVKGRFTISRDNAKNTVYLQMNSLKPEDTAVYYCAKVQWHLYDWGQGTQVTVSS | high polyreactivity
12 | QDQLVESGGGLVQAGGSLSLSCAASGLIFSDNAMGWYRQAPGKERELVATITFSGSTNYADSVKGRFTISRDNAKNTVYLQMNSLKPEDTAVFFCAADAGGGPFEYWGQGTHVTVSS | low polyreactivity
13 | QDQLVESGGGLVQAGGSLSLSCAASGRTLWRNTMGWYRQAPGKERELVAAITTRGGSTYYADSVKGRFTISRDTAKNTVYLQLNSLKPEDTAVYYCAARTYTGEGSGRFYYWGQGTQVTVSS | high polyreactivity
14 | QDQLVESGGGLVQAGGSLSLSCAASGSTYDRNAMGWYIQAPGKEREMVAGISFSGGTTYYADSVKGRFTISRDNAKNTVYLQMNRLKPEDTEVYDCAASTYQPGAVPFDYWGQGSQVTVSS | low polyreactivity
15 | QDQLVESGGGLVQAGGSLSLSCAASRFIYLTYAMGWSRQAPGKERELVAAISSRGGSTYYADSVKGRFTISRDNAKNTVYLQMNSLKPEDTAVYYCAYTRGKYDYWGQGTQVTVSS | high polyreactivity
16 | QDQLVESGGGLVQAGVSLRLRSAASGFISQENAMGWYRQAPGKDRELVATISGSVGITYYADSVKGRFTISRDNAKNTVYLQMNSLKPEDTAVYYCNKEISYLSWGYDYWGLGTQVTVSS | low polyreactivity
17 | QDQLVESGGGLVQARGTLRLSCAASGRTFYQNAMGWYRHAPGKEREFVGAITGGTGSTHYADSVKGRFTISRDNAKNTVFLQMNSLKPEDTAVYYCATRYLLGFSRYDYCGQGTQVTVSS | low polyreactivity
18 | QDQLVESGGGLVQEGGSLRLSCAASGRIFVGYAMGWSRQAPGKERELVAAISSSGGRTYYADSVKGRFTISRDNAKNTVYFQMNSLQPEDTAVYYCAAGRFIWGTWALDYWGQGTQVTVSS | high polyreactivity
19 | QDQLVESGGGLVQPGGSLRLSCAASGTIIPRSAMGWYRQATGKERELVAAISQRGGSTFYADSVKWRFTISRDNAKNTVYLQMNRLKPEVTAVYYCAADPGVQRGHIDRMYYWGQGTQVTVSS | high polyreactivity
20 | QDQLVESGGGLVQTGGSLRLSWAASGSTFYNTVMGWYRQAPGKERELVAAINSGGRTYYADSVKGRFTISRDNAKNTVYLQMNSLNPEDTAVYYCAVGYGRAARMDYWGQGTQVTVSS | high polyreactivity
21 | QDQLVESGGGLVRAGGSLRLSCAASGSIFVVNAMGLYRQAPGKERELVADINSGGSTNFADSVKGRFTISRDNAKNTVYLQMNSLKPEDTAVYYCAKSAVTGTYDYWGQGTLVTVSS | low polyreactivity
22 | QDQLVESGGVLFQAGGSLRLTCAAYGRILYHYDMGWYRQAPGKERELVAAITRGAGTNYADSVKGRFTISRDNAKNTVYVQMNSLKPEDTAVYYCNADRFIVTRSRRGDYWGQGTQVTVSS | low polyreactivity

Row | Sequence | polyreactivity (PSR sort gate)
23 | QDQLVESGGWLVQAGGTLRLSCAASGRILWFYAMGWYRQAPGKERELVASISGSGGSTFYADSVKGRFTISRDNAKNTVYLQMNRLKPEDTAVYYCAAYKEPYYEEYGYWGQGTQVTVSS | low polyreactivity
24 | QDQLVESGVGIVQAGGSLRLSCAASGSTFGIYAKGWYRQAPGKETELDAAISSGASTNYADSVKGRFTISRDNEKNTVYLQMNSLKQEDTAVYYCAVESVYEYGGYVDSAYDYWGQGTQVTVSS | low polyreactivity
25 | QDQLVESGVGLVQAGGILRLSCAASVSTFNRYAMVWYRQAPGKERELVAAISSSGGYTYYADSVKGRFTNSRDNAKNTVYFQMNSLKAEDTAVYYCNAAYRVRRFDYWGQGTQVTVSS | low polyreactivity
26 | QDQLVESGVGLVQAGGSLRLSCAASGRIFGRYSMGWYRQAPGKEMEFVAAISKRGGGTYYADSVKGRFTISRDNAKNTVYLQMNSLKPEDSAVYYCAVDNSPGFDDYDYWGQGTQVTVSS | high polyreactivity
27 | QDQLVESGVGLVQPGGSLRLSCAASGITFRKYAMGWYRQAPGKERELVAAIRWSGTRTYYADSVKGRFTISRDNAKNTDYLQMNRLKPEDTAVYYCATVYGATPGRSGLDYWGQGTQVTVSS | high polyreactivity
28 | QDQLVESRGGIVQAVRSLRLSCAASGSIFIDNAMGWYRQAPGKESEFVAAISKSATSTYYADSVKGRFTISRDNAYNTVYLEMKSLIPEDTAVYYCAVRRPRPYSNYYYWGQGTQVNVSS | high polyreactivity
29 | QDQLVESRGGLVQAGGSLRLSCAASGFTFYYYAMGWYRQAPGKERELVAAISSGGSTYYADSVKGRFTISRDNAKNTVYLQMNSLKPEDTAVYYCARLYRVGRYLFDVDSWGQGTQVTVSS | high polyreactivity
30 | QDQLVESRGGLVQAGGSLRLSCAASGSISVKYAMGWYRQAPGKERELVAAISSDGNTYYADSVKGRFTISRDNAKYNVYLQMNSLKPEDTAVYYCAPAKVSWFGLKYYYWGQGTQVTVSS | high polyreactivity
31 | QDQLVESRGGLVQAGGSLRLSCAASGSTFGKNTMGWYRQAPGKERELVAAISRGVSTYYADSVKGRFTISRDNAKNTVYLQMNSLKPEDTAVYYCAAQEAYRWYGFDYWGQGTQVTVSS | high polyreactivity
32 | QDQLVESRGGLVQAGGSLRLSCAASGSTLSGNAMGWYRQAPGKERELVAAITSSGGRTYYADSVKGRFTISRDNAKNTVYLQMNSLKPEDTAVYYCAKDRYGWGQGTQVTVSS | high polyreactivity
33 | QDQLVESRGVIVQAGGSLRLSCAASGRIFSVNAMGWYRQAPGKERELVAAITGSGTITYYADSVKGRFTISRDNAKNIVYLQMNSLKQEDTAVYYCAARPVLRYYAGYYYWGQGTQVTVSS | high polyreactivity
34 | QDQLVESRGVLVQAGGSLRLSCAAYGRIISPYAMGWYRQAPGKERELVAAISRRGTRTNYADSVKGRFTLSRDKAKNTVYLQMNSLKPVDTAVYYCNKTPLLRWGQGTQVSVSS | high polyreactivity
35 | QDQLVESVGGLVQAGGSLRLSCAASGITFYYSAMGWDRQAPGKERELVAAISFRGGSTYYADSVKGRFTSSRDNAKNTVYLQMNSLKPEDTAVYYCAAETSPSWYTWVTYDYWGQGTQVTVSS | high polyreactivity
36 | QDQLVESVGGLVQAGGSLRLSCAASGSIFRLYAMGWYRHAPGKERELVAGITSSDGSTYADSVKGRFTISRDNAKNTVYLQMNSLKPEDTAVYYCAARGYVRWYNRYDYWGQGTQVTVSS | low polyreactivity
37 | QDQLVESVGGLVQAGGSLRLSCAPTGSTFYGYGLAWSRQSPGKARELVAAITGSGDTTYYADSVKGRFTISRDYANNTVYLQMNSLKPEDTAVYYCNARWHAEYDYWGQGTQVTVSS | low polyreactivity
38 | QDQLVESVGGLVQAGVSLRLSCAASGGTFDVNAMGWYRQATGKERELVATISGGGSTNYADSVKGRFTISRDNAKNTVYLQMNSLKPEETAVYYCAAESEPIRNRERDYWGQGTQVTVSS | low polyreactivity
39 | QDQLVESVGSLVQAGGSHRLSCSASGFIIANNPMGWYRQAPGKERELVATITGGGSTDYADTVKRRFTISRDNAKNTVYLQMNSLKPEDTAVYYCAAEYKYWAFASPSLTTNDSWGQGTQVTVSS | low polyreactivity
40 | QDQLVESWGCLVQAGGSLRLSCAASRRIFGGHTMGWYRQAPGKERELVAAITSGRSTTYADSVKGRFTISRDNAKNSVYFLMNSLKPEDTAVDYCAARYVYPNQWTPYIRPYDYWGQGTQVTVSS | low polyreactivity
41 | QDQLVESWVGLVQAGGSLRLSCAASGTISSYAMGWSRQAPGKERELVASIRYRGGSTYYADSVKGRFTISRDNEKNTVYLQINSLKPEDTAVYYCNAVRVPYVRGAKFEYWGQGTQVTVSS | low polyreactivity
42 | QDQLVETGGGLVQAGCSLRLSCAASGRIFVPYAMGWYRQSHGKERELVAAISGSDGSTYYADSVKGRFTISRDNAKNTVYLQMNRLKPEDTAVYYCARLLIYAPPSGSHRYYPFDYWGQGTQETVSS | low polyreactivity
43 | QDQPVDSGRCLVQAGGSLRLSCAASGSTFEVYTMGWYRQAPGQERELVAAITKNGGTTYYADSVKGRFTISRDNAKNTVYLLMNSLKPEDTAVYYCAATWPRYGYGYWGQGTQVTVSS | low polyreactivity
